From article PMC12639820, “Antifactor H Autoantibody Characterization in Atypical Hemolytic Uremic Syndrome” (Kidney International Reports, 2025) come the findings set out here.

This experiment has as its target T1, purified human C3b (human, UniProt P01024 23-667; P01024 749-1663).
T1 construct: C3b is the two-chain cleavage product of C3; source: purified human C3b
Kind of experiment: ELISA; C3b (5 ug/ml) or C3d (5 ug/ml) coated on wells; purified biotinylated human FH (6 ug/ml) preincubated in solution with different amounts of total IgG from patient serum (kAb) or NHS. The note with it: both partners purified.

T1 sequence (P01024 23-667, chain 1 of 2): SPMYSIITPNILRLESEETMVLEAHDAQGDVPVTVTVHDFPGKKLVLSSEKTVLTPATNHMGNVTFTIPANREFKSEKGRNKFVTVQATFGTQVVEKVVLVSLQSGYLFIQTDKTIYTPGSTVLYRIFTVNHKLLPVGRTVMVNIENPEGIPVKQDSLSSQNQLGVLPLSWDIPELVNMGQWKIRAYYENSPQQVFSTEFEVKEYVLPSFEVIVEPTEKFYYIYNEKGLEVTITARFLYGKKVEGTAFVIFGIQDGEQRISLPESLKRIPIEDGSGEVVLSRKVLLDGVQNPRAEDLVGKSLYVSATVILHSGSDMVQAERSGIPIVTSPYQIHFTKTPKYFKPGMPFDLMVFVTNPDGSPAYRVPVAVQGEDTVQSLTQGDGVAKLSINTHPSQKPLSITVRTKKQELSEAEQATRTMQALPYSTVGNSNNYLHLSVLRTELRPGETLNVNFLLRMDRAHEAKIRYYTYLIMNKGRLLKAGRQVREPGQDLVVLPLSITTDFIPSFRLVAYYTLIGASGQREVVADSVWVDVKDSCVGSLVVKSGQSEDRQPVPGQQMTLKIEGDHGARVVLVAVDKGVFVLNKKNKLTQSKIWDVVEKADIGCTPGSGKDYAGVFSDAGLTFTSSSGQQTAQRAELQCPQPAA
T1 sequence (P01024 749-1663, chain 2 of 2): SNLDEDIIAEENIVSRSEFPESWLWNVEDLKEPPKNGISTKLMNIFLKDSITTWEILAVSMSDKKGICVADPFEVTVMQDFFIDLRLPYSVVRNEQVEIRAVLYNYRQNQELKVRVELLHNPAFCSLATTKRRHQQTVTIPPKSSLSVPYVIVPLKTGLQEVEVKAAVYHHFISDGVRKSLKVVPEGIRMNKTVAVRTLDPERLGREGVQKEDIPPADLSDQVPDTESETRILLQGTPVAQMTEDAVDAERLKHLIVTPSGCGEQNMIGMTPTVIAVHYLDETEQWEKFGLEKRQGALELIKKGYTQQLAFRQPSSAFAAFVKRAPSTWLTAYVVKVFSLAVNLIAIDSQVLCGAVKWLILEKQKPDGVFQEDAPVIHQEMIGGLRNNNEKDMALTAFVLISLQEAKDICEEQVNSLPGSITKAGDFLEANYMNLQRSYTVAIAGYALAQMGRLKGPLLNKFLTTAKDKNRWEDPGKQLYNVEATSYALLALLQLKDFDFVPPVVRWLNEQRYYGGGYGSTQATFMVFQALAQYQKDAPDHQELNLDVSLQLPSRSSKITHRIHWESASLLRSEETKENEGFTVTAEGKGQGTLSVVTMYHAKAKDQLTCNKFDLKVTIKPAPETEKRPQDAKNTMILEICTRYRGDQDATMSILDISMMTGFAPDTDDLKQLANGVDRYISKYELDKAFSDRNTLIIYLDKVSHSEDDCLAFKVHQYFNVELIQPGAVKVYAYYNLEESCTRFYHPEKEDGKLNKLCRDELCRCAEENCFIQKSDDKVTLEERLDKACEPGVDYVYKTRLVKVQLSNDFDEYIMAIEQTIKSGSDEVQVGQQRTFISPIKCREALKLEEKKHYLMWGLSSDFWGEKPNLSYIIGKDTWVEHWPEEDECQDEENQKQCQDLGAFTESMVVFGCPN

B1: purified biotinylated human factor H (natural protein, UniProt P08603 19-1231, looked up)
chain: EDCNELPPRRNTEILTGSWSDQTYPEGTQAIYKCRPGYRSLGNVIMVCRKGEWVALNPLRKCQKRPCGHPGDTPFGTFTLTGGNVFEYGVKAVYTCNEGYQLLGEINYRECDTDGWTNDIPICEVVKCLPVTAPENGKIVSSAMEPDREYHFGQAVRFVCNSGYKIEGDEEMHCSDDGFWSKEKPKCVEISCKSPDVINGSPISQKIIYKENERFQYKCNMGYEYSERGDAVCTESGWRPLPSCEEKSCDNPYIPNGDYSPLRIKHRTGDEITYQCRNGFYPATRGNTAKCTSTGWIPAPRCTLKPCDYPDIKHGGLYHENMRRPYFPVAVGKYYSYYCDEHFETPSGSYWDHIHCTQDGWSPAVPCLRKCYFPYLENGYNQNYGRKFVQGKSIDVACHPGYALPKAQTTVTCMENGWSPTPRCIRVKTCSKSSIDIENGFISESQYTYALKEKAKYQCKLGYVTADGETSGSITCGKDGWSAQPTCIKSCDIPVFMNARTKNDFTWFKLNDTLDYECHDGYESNTGSTTGSIVCGYNGWSDLPICYERECELPKIDVHLVPDRKKDQYKVGEVLKFSCKPGFTIVGPNSVQCYHFGLSPDLPICKEQVQSCGPPPELLNGNVKEKTKEEYGHSEVVEYYCNPRFLMKGPNKIQCVDGEWTTLPVCIVEESTCGDIPELEHGWAQLSSPPYYYGDSVEFNCSESFTMIGHRSITCIHGVWTQLPQCVAIDKLKKCKSSNLIILEEHLKNKKEFDHNSNIRYRCRGKEGWIHTVCINGRWDPEVNCSMAQIQLCPPPPQIPNSHNMTTTLNYRDGEKVSVLCQENYLIQEGEEITCKDGRWQSIPLCVEKIPCSQPPQIEHGTINSSRSSQESYAHGTKLSYTCEGGFRISEENETTCYMGKWSSPPQCEGLPCKSPPEISHGVVAHMSDSYQYGEEVTYKCFEGFGIDGPAIAKCLGEKWSHPPSCIKTDCLSLPSFENAIPMGEKKDVYKAGEQVTYTCATYYKMDGASNVTCINSRWTGRPTCRDTSCVNPPTVQNAYIVSRQMSKYPSGERVRYQCRSPYEMFGDEEVMCLNGNWTEPPQCKDSTGKCGPPPPIDNGDITSFPLSVYAPASSVEYQCQNLYQLEGNKRITCRNGQWSEPPKCLHPCVISREIMENYNIALRWTAKQKLYSRTGESVEFVCKRGYRLSSRSHTLRTTCWDGKLEYPTCAKR
modifications: biotin (biotinylated; sites not stated)
notes: complement factor H, human, 155 kDa serum protein of 20 CCP domains; purified human protein; also called FH; source: purified human FH, biotinylated
On to B1, for which the binding result is given as “binds”.
